Assay results reported in the supplement of paper PMC9112550, “Optimization of the antimicrobial peptide Bac7 by deep mutational scanning” (BMC Biology, 2022).

tested on: Escherichia coli TOP10; experiment: shrunken log2 fold change of peptide-encoding DNA abundance (4.5 h post-induction vs induction); higher = less antimicrobial activity (less host growth inhibition); details: time post-induction: 4.5 h; library: site-saturation at positions 5, 18, 19, 20
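Also: peptides expressed intracellularly from a pBAD plasmid library in pooled LB shake-flask culture, induced with 0.3% L-arabinose, DNA abundance read by NGS, three biological replicates, DESeq2 with apeglm shrinkage.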

Sequence	shrunken log2 fold change
RRIRPRPPRLPRPRPRPLRAPRP	0.86
RRIRDRPPRLPRPRPRPWFRPRP	-0.44
RRIRIRPPRLPRPRPRPIWSPRP	0.025
RRIRQRPPRLPRPRPRPKLFPRP	-0.0707
RRIRVRPPRLPRPRPRPQDPPRP	0.0381
RRIRERPPRLPRPRPRPIVKPRP	-0.0406
RRIRNRPPRLPRPRPRPNQVPRP	-0.255
RRIRSRPPRLPRPRPRPWATPRP	-0.102
RRIRPRPPRLPRPRPRPNHIPRP	-0.856
RRIRTRPPRLPRPRPRPYCTPRP	1.36
RRIRPRPPRLPRPRPRPFWKPRP	0.0756
RRIRKRPPRLPRPRPRPYKFPRP	-0.0374
RRIRNRPPRLPRPRPRPAGDPRP	0.395
RRIRLRPPRLPRPRPRPMKSPRP	0.00719
RRIRNRPPRLPRPRPRPIDFPRP	-0.413
RRIRERPPRLPRPRPRPLTRPRP	0.167
RRIRPRPPRLPRPRPRPPQWPRP	0.403
RRIRRRPPRLPRPRPRPKWQPRP	-0.175
RRIRYRPPRLPRPRPRPIARPRP	0.00902
RRIRVRPPRLPRPRPRPAAEPRP	0.109
RRIRKRPPRLPRPRPRPGWAPRP	1.04
RRIRRRPPRLPRPRPRPIWPPRP	0.664
RRIRNRPPRLPRPRPRPAVMPRP	-0.0474
RRIRFRPPRLPRPRPRPTGAPRP	0.257
RRIRCRPPRLPRPRPRPPTTPRP	0.353

Sequence	shrunken log2 fold change
RRIRERPPRLPRPRPRPVIMPRP	-0.458
RRIRRRPPRLPRPRPRPQSQPRP	0.112
RRIRLRPPRLPRPRPRPIQHPRP	-0.213
RRIRWRPPRLPRPRPRPFMYPRP	-0.0072
RRIRYRPPRLPRPRPRPTYRPRP	-0.27
RRIRIRPPRLPRPRPRPFYWPRP	-0.12
RRIRERPPRLPRPRPRPDFSPRP	0.0617
RRIRRRPPRLPRPRPRPGDNPRP	0.169
RRIRKRPPRLPRPRPRPNGHPRP	-0.0369
RRIRQRPPRLPRPRPRPRYEPRP	-0.349
RRIRNRPPRLPRPRPRPQYNPRP	-0.674
RRIRNRPPRLPRPRPRPRPYPRP	-0.25
RRIRTRPPRLPRPRPRPPNHPRP	-0.000973
RRIRNRPPRLPRPRPRPNIWPRP	-0.636
RRIRPRPPRLPRPRPRPTWEPRP	0.659
RRIRQRPPRLPRPRPRPGRSPRP	0.105
RRIRDRPPRLPRPRPRPQDDPRP	0.0352
RRIRERPPRLPRPRPRPKCYPRP	-1.04
RRIRHRPPRLPRPRPRPCAEPRP	-0.228
RRIRNRPPRLPRPRPRPCFPPRP	-0.312
RRIRQRPPRLPRPRPRPCCCPRP	0.0589
RRIRSRPPRLPRPRPRPRCYPRP	-0.107
RRIRTRPPRLPRPRPRPQCDPRP	-0.184
RRIRTRPPRLPRPRPRPGDYPRP	0.142
RRIRPRPPRLPRPRPRPLKMPRP	-0.124

Sequence	shrunken log2 fold change
RRIRWRPPRLPRPRPRPDWAPRP	-0.107
RRIRVRPPRLPRPRPRPEFMPRP	-0.0942
RRIRIRPPRLPRPRPRPTHFPRP	-0.0417
RRIRRRPPRLPRPRPRPKHGPRP	-0.0664
RRIRVRPPRLPRPRPRPEECPRP	0.0155
RRIRFRPPRLPRPRPRPKLGPRP	-0.0528
RRIRMRPPRLPRPRPRPLSWPRP	0.982
RRIRARPPRLPRPRPRPDFYPRP	0.0576
RRIRYRPPRLPRPRPRPVCKPRP	-1.41
RRIRVRPPRLPRPRPRPDNFPRP	0.0216
RRIRCRPPRLPRPRPRPCSYPRP	-0.895
RRIRLRPPRLPRPRPRPRGDPRP	0.553
RRIRTRPPRLPRPRPRPMIMPRP	-0.437
RRIRNRPPRLPRPRPRPFNFPRP	0.125
RRIRHRPPRLPRPRPRPHQKPRP	-0.0284
RRIRERPPRLPRPRPRPCCYPRP	0.00792
RRIRMRPPRLPRPRPRPGWAPRP	0.965
RRIRRRPPRLPRPRPRPYWKPRP	0.0393
RRIRNRPPRLPRPRPRPCDIPRP	-0.0262
RRIRIRPPRLPRPRPRPPMYPRP	-0.849
RRIRTRPPRLPRPRPRPHMVPRP	0.00159
RRIRHRPPRLPRPRPRPGFNPRP	-0.0117
RRIRDRPPRLPRPRPRPGEVPRP	0.247
RRIRARPPRLPRPRPRPQLEPRP	0.63
RRIRHRPPRLPRPRPRPKPSPRP	0.411
